Data as given in patent US20050288225A1 (YEDA RESEARCH AND DEVELOPMENT, published 2005).

Target: T1, HA-tagged B1 protein (Homo sapiens (Human), UniProt O43353 1-540)
T1 construct: Expressed in transfected 293 cells for co-immunoprecipitation; also called HA-B1
Assay: co-immunoprecipitation from transfected 293 cells: anti-FLAG IP, anti-HA western blot
Experimental: Seven hours after transfection cells were washed and 18 hours later cells were lysed in a buffer containing 50 mM HEPES pH 7.5, 250 mM NaCl, 0.2% NP-40, 5 mM EDTA, 1 mM phenylmethylsulfonyl fluoride, 2.0 μg/ml aprotinin and 20 μg/ml leupeptin (lysis buffer). Immunoprecipitation was performed by incubation (2hours, 4° C.) of 1 ml aliquots of lysate with anti-FLAG epitope antibody (5 μg/aliquot) and with protein G-agarose beads (30 μl/aliquot). Immunoprecipitates were washed three times with lysis buffer and once with PBS, fractionated by 10% SDS-PAGE and transferred to a nitrocellulose membrane (Schleicher & Schuell, Dassel, Germany). Western blot analysis was performed with anti-HA epitope monoclonal antibodies applied at a dilution of 1:1000, and the ECL kit (Amersham, Buckinghamshire, England).

T1 sequence (O43353 whole entry L79F): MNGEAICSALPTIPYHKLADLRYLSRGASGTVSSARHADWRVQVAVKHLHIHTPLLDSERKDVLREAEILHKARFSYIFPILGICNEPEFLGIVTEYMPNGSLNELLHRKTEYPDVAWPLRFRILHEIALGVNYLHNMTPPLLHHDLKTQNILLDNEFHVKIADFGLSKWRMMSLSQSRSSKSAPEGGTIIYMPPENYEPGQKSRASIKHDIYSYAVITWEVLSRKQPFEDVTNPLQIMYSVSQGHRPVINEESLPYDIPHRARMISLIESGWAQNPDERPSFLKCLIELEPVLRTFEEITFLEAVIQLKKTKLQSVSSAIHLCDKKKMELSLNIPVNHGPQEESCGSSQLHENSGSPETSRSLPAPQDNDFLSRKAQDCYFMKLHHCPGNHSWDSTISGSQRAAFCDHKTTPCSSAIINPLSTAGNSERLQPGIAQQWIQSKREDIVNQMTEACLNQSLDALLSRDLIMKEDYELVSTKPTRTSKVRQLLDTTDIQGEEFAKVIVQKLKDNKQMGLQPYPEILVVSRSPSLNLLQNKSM

binding result: no binding
B1: Flag-tagged TRAF2 (other, UniProt Q12933 1-501, looked up, not shown: small tags and cut ends)
chain: MAAASVTPPGSLELLQPGFSKTLLGTKLEAKYLCSACRNVLRRPFQAQCGHRYCSFCLASILSSGPQNCAACVHEGIYEEGISILESSSAFPDNAARREVESLPAVCPSDGCTWKGTLKEYESCHEGRCPLMLTECPACKGLVRLGEKERHLEHECPERSLSCRHCRAPCCGADVKAHHEVCPKFPLTCDGCGKKKIPREKFQDHVKTCGKCRVPCRFHAIGCLETVEGEKQQEHEVQWLREHLAMLLSSVLEAKPLLGDQSHAGSELLQRCESLEKKTATFENIVCVLNREVERVAMTAEACSRQHRLDQDKIEALSSKVQQLERSIGLKDLAMADLEQKVLEMEASTYDGVFIWKISDFARKRQEAVAGRIPAIFSPAFYTSRYGYKMCLRIYLNGDGTGRGTHLSLFFVVMKGPNDALLRWPFNQKVTLMLLDQNNREHVIDAFRPDVTSSSFQRPVNDMNIASGCPLFCPVSKMEAKNSYVRDDAIFIKAIVDLTGL
notes: Expressed in transfected 293 cells; also called FL-TRAF2
